In patent publication US11021755B2, “Compositions and methods for identifying anti cancer, anti-metastatic and anti-stress agents” (THE REGENTS OF THE UNIVERSITY OF CALIFORNIA, priority 2015, dated 2021):
Peptide text beside a SMILES is read from it. * marks the point of attachment. Cbz = O=C(OCc1ccccc1)*

Assays:
[1] = system: Slug protein and pY416 SFK in MCF10A cells; assay: Immunoblots of MCF10A cells stimulated with TGF-b2 and treated with inhibitors or antibody; format: cell-based, human; conditions: for Slug protein levels: 10 mM MG132, 5 hr prior to lysis
Protocol: FIGS. 21F-G illustrate Immunoblots of MCF10A cells stimulated with TGF-b2 or vehicle control and probed for the indicated proteins. FIG. 21F: Cells were transfected with control (Ctrl) or b3 siRNA and additionally treated with vehicle or proteasome inhibitor (MG132) for 5 hr prior to lysis. FIG. 21G: Cells were treated with 100 nM Src inhibitor (dasatinib) for the indicated length of time prior to lysis. FIG. 21F and FIG. 21G: Data shown are representative of three independent experiments.
Indeed, Slug protein levels are highly regulated through degradation by the proteasome (Kim et al. 2012; Wu et al., 2012). […] Thus, it appears that TGF-β2-stimulated expression of a αvβ3 mediates SFK activation resulting in enhanced Slug protein stability.
(§1) For experiments with MCF10A and HMECs, TGF-b2 stimulations were performed with 5 ng/ml TGF-b2 (PeproTech) or 0.1% BSA/PBS (vehicle) for 48 hr prior to lysis. In some experiments, […] of the anti-αvβ3 function-blocking antibody LM609 (Millipore) was added to cells at the same time as TGF-b2 or vehicle addition. For the proteasome inhibitor experiments, 10 mM MG132 (Sigma-Aldrich) or DMSO (vehicle) was added to transfected MCF10A cells 5 hr prior to lysis. Treatment of MCF10A cells with the SFK inhibitor dasatinib (ChemieTek) or DMSO (vehicle) was performed with 100 nM dasatinib for the indicated times prior to harvesting lysates.

[2] = system: ITGB3 promoter in HCC827 cells; conditions: resuming erlotinib treatment after erlotinib holiday
[3] = system: MaSC/basal and luminal colonies from virgin mammary cells; assay: Mammary colony formation on irradiated MEFs with growth factors; format: cell-based, mouse; conditions: for total colony number: virgin mammary cells on irradiated MEFs
Protocol: This effect was reduced in mammary cells from β3KO mice (FIG. 20H), similar to our results from pregnant b3KO mice (FIG. 19C).
For colony formation on irradiated MEFs, 100,000 MEFs were seeded into 6-well dishes for 48 hr prior to adding 40,000 cells from digested mammary glands and grown in complete Dulbecco's modified Eagle's medium (DMEM). Colonies formed over 5-6 days before fixing and staining with either 0.1% crystal violet/20% methanol/PBS or 2% paraformaldehyde/PBS for immunofluorescent staining and counting colonies. For Matrigel colonies, 5,000 fluorescence-activated cell sorting (FACS) mammary gland cells were suspended in […] growth factor-reduced Matrigel (BD PharMingen) and grown 14 days in serum-free mammary epithelial cell medium-basal medium (Cambrex) supplemented with B27 supplement, 20 ng/ml epidermal growth factor, 20 ng/ml […] fibroblast growth factor, […], 100 U/ml penicillin, and […] streptomycin. Total colonies per well were counted from each of the four replicates per experiment.
(§2) Cells from digested mammary glands were seeded at 40,000 cells per well onto MEFs (for colony-formation assays) or 8-well chamber slides (Lab-Tek) coated with 2% Matrigel/DMEM. At the time of seeding, cells were suspended in complete DMEM supplemented with vehicle (0.1% BSA/PBS), RANKL (50 ng/ml), TGF-b1 (5 ng/ml), or TGF-b2 (5 ng/ml) (PeproTech). Cells were fixed with 2% paraformaldehyde/PBS after 48 hr (chamber slides) or 5 days (colonies) for immunofluorescent staining.

[4] = system: β3 expression in MaSCs/basal cells; assay: β3 expression in K14+SMA+ cells from virgin WT mammary cells stimulated with growth factors (immunofluorescence); format: cell-based, mouse; conditions: cells from virgin WT mice; relative to vehicle-treated cells; TGF-b2 5 ng/ml, TGF-b1 5 ng/ml, RANKL 50 ng/ml, 48 hr
Excerpt: (§3) To examine the ability of these factors to increase β3 expression, we stimulated cells from virgin WT mice and measured β3 expression in MaSCs/basal cells, defined by expression of K14 and SMA.
FIG. 20A illustrates representative immunofluorescent images of β3 expression in K14+SMA+ cells (arrows) from pooled virgin WT mammary cells stimulated with the indicated growth factors. Nuclei are stained blue in all panels. Scale bars, […]. Data shown are representative of three independent experiments.
as §2

[5] = system: β3 promoter; assay: β3 promoter luciferase reporter in MCF10A cells; format: cell-based, human; conditions: reporter with proximal 1,300 bp of the β3 promoter
Excerpt: FIG. 20E graphically illustrates a Histogram displaying the relative luciferase activity in MCF10A cells transfected with an empty vector (Ctrl) or a luciferase reporter plasmid containing the proximal region of the β3 promoter (β3 prom-Luc) and stimulated with vehicle or TGF-β2. n=3 independent experiments. p=0.043.

[6] = system: β3 expression in human mammary epithelial cells (HMECs), MCF10As; assay: Immunoblot for β3 in MCF10As and HMECs stimulated with TGF-b2; format: cell-based; conditions: HMECs including MCF10As; 5 ng/ml TGF-b2, 48 hr
Protocol: FIG. 20D illustrates an image of an Immunoblot for β3 and b-actin (loading control) in MCF10As and HMECs stimulated with TGF-b2 or vehicle control. Data shown are representative of three independent experiments.
as §1

[7] = system: β3 mRNA in CD29hi MaSCs/basal cells and CD29lo luminal cells; assay: qPCR of β3 mRNA in vehicle versus TGF-β2-stimulated CD29hi and CD29lo cells; format: cell-based, mouse
Excerpt: as §3
FIG. 20B and FIG. 20C graphically illustrate qPCR analysis comparing the relative levels of β3 mRNA in vehicle versus TGF-β2-stimulated CD29hi (FIG. 20B) and CD29lo (FIG. 20C) cells from WT virgin mice. n=2 independent experiments (pooled samples).
For FIG. 20B, FIG. 20C, and FIG. 20F: each sample was run in triplicate, and 18S rRNA (FIG. 20B and FIG. 20C) or b-actin (FIG. 20F) was used as loading controls.

[8] = system: nuclear Slug in K14+SMA+ MaSCs/basal cells; assay: Slug expression in K14+SMA+ mammary cells stimulated with TGF-β2; format: cell-based, mouse
Excerpt: Slug was recently characterized as a determinant of the MaSC fate in the virgin mammary gland (Guo et al., 2012) and is expressed during early to midpregnancy but is negatively regulated by Elf5 during late stage pregnancy/lactation, allowing for alveolar maturation (Chakrabarti et al., 2012). Therefore, we considered whether β3 was required for TGF-β2-mediated Slug expression in MaSCs/basal cells.
To determine the potential mechanism by which αvβ3 regulates Slug, we considered whether αvβ3 signaling may be required by assessing whether the b3DC mutant affects Slug expression. […] The β3DC mutant has previously been characterized as defective in recruiting and activating Src family kinases (SFKs) (Ablooglu et al., 2009; Arias-Salgado et al., 2003; Desgrosellier et al., 2009).
FIG. 21B graphically illustrates quantitation of the percentage of Slug+K14+SMA+ cells. p=0.0439 (vehicle versus TGF-b2 inWT cells) and p=0.0342 (WT versus b3KO cells stimulated with TGF-b2). For FIG. 21A and FIG. 21B: WT, n=3, b3KO, n=3.
FIG. 21E graphically illustrates quantitation of the percentage of Slug-expressing K14+SMA+ cells from virgin WT and b3DC mammary cells stimulated with vehicle or TGF-b2. WT, n=2, b3DC, n=2. p=0.029 (vehicle versus TGF-b2 in WT cells) and p=0.032 (WT versus b3DC cells stimulated with TGF-b2).
as §2

[9] = virgin WT mammary cells on irradiated MEFs, compared to vehicle

CC(C)C[C@@H](C=O)NC(=O)[C@H](CC(C)C)NC(=O)[C@H](CC(C)C)NC(=O)OCc1ccccc1 [MG132] (Cbz-Leu-Leu-Leu-aldehyde)
Slug protein levels ([1]; b3 knockdown MCF10A cells): restore Slug protein levels to normal | Slug protein levels ([1]; control MCF10A cells): little effect

C#Cc1cccc(Nc2ncnc3cc(OCCOC)c(OCCOC)cc23)c1 [erlotinib]
expression of β3 and stem cell genes OCT4 and Nanog [2]: re-expression

TGF-β1: transforming growth factor β (TGF-β) family member (PeproTech)
total colony number [3]: severe growth inhibitory effect | β3 expression in MaSCs/basal cells (K14 and SMA expressing) [4]: not

B1: RANKL: receptor activator of nuclear factor kB ligand (protein, UniProt O14788 140-317, looked up)
Tumor necrosis factor ligand …: IRAEKAMVDGSWLDLAKRSKLEAQPFAHLTINATDIPSGSHKVSLSSWYHDRGWAKISNMTFSNGKLIVNQDGFYYLYANICFRHHETSGDLATEYLQLMVYVTKTSIKIPSSHTLMKGGSTKYWSGNSEFHFYSINVGGFFKLRSGEEISIEVSNPSLLDPDQDATYFGAFKVRDID
total colony number [3]: potent driver of colony formation | β3 expression in MaSCs/basal cells (K14 and SMA expressing) [4]: not

B2: TGF-β2: Transforming growth factor β2, growth factor released during pregnancy (PeproTech) (protein, UniProt P61812 303-414, looked up)
Transforming growth factor …: ALDAAYCFRNVQDNCCLRPLYIDFKRDLGWKWIHEPKGYNANFCAGACPYLWSSDTQHSRVLSLYNTINPEASASPCCVSQDLEPLTILYYIGKTPKIEQLSNMIVKSCKCS
β3 promoter activity (relative luciferase activity) [5]: directly activating the β3 promoter | β3 expression (immunoblot) [6]: potent driver | frequency of bipotent, MaSC-like colonies [3, 9]: increased | luminal colonies [3, 9]: reciprocal decrease | total colony number [3]: did not affect | β3 mRNA expression ([7]; CD29hi MaSCs/basal cells from WT virgin mice): drive β3 mRNA expression | β3 mRNA expression ([7]; CD29lo luminal cells from the same mice): little effect | expression of EMT markers such as Slug, E-cadherin, and Vimentin ([1]; MCF10A cells, TGF-β2 stimulation): drives changes | Slug expression in K14+SMA+ cells ([8]; cells from β3DC knockin mice): no increase | nuclear Slug expression in K14+SMA+ cells ([8]; virgin WT mammary cells, compared to vehicle control): induced nuclear Slug expression | Slug expression in K14+SMA+ cells ([8]; β3KO cells): failed to increase Slug | β3 expression in MaSCs/basal cells (K14 and SMA expressing) [4]: stimulated β3 expression
